According to patent publication US8729030B2 (Affymax, Inc., priority 2003, dated 2014):
pEC50: −log10 of the molar value. Bridges are numbered along the chain shown (N, C = ends). Where no end group is shown, it is not given here. [ ]: non-standard residue; d: D form. 1Nal = N[C@@H](Cc1cccc2ccccc12)C(=O)O; Sar = CNCC(=O)O

Biological target: T1, human EPO-R (Homo sapiens, UniProt P19235)
T1 construct: expressed in transfected cells; host or cells: murine pre-B-cell line Baf3 (BaF3/Gal4/Elk/EPOR)
T1 sequence (P19235 25-508): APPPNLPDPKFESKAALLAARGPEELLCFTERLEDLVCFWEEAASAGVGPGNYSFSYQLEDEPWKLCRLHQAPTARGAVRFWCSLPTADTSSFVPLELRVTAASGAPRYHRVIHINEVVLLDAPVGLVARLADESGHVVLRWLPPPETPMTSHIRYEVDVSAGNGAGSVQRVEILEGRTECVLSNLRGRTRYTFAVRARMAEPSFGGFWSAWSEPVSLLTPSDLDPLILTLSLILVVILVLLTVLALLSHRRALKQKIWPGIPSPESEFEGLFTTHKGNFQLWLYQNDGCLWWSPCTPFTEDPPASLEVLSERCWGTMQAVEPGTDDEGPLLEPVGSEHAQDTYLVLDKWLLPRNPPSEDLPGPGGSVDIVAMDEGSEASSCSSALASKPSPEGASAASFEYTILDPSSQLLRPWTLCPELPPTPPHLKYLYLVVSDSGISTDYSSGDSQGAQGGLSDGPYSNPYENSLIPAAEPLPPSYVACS
Test: Proliferation assay (BaF3/Gal4/Elk/EPOR cells, MTT)
Format: cell-based
Conditions: Table 6, 48 h
Experimental: This assay is based upon a murine pre-B-cell line, Baf3, transfected to express human EPO-R. Proliferation of the resulting cell line, BaF3/Gal4/Elk/EPOR, is dependent on EPO-R activation. The degree of cell proliferation is quantitated using MTT, where the signal in the MTT assay is proportional to the number of viable cells.
The BaF3/Gal4/Elk/EPOR cells are cultured in spinner flasks in DMEM/F12 medium (Gibco) supplemented with 10% FBS (Hyclone) and 2% WEHI-3 supernatant (ATCC #TIB-68). Cultured cells are starved overnight, in a spinner flask at a cell density of 1×10^6 cells/ml, in DMEM/F12 medium supplemented with 10% FBS and 0.1% WEHI-3 supernatant. […] Absorbance of each well at a wavelength of 595 nm is then measured by spectrophotometry. Plots of the absorbance readings versus test peptide concentration are constructed and the EC50 calculated using Graph Pad software. The concentration of test peptide that results in a half-maximal absorbance is recorded as the EC50[See Table 2: Proliferation EC50].
The BaF3/Gal4/Elk/EPOR cells are cultured in spinner flasks in DMEM/F12 medium (Gibco) supplemented with 10% FBS (Hyclone) and 2% WEHI-3 supernatant (ATCC #TIB-68). […] Absorbance of each well at a wavelength of 595 nm is then measured by spectrophotometry. Plots of the absorbance readings versus test peptide concentration are constructed and the EC50 calculated using Graph Pad software. […]

pEC50: 9.78
Substance: peptide dimer of monomers (AcG)GLYACHMGPIT(1-nal)VCQPLR(MeG)K (SEQ ID NO: 2) (Ac-GGLYACHMGPIT[1Nal]VCQPLR[Sar]K; disulfide 6-15 (inferred); not fully specified (residue 1); printed as (AcG)GLYACHMGPIT(1-nal)VCQPLR(MeG)K; also: homodimer, dimer linkage not given here) [Peptide I]
